From patent publication US10556936B2, “Immunogenic proteins and fragments thereof from allergenic mites” (ALK-ABELLÓ A/S, priority 2016, dated 2020)

B1: Derp1: major house dust mite allergen, group 1, Dermatophagoides pteronyssinus; control (protein, UniProt P08176 99-320, looked up)
Peptidase 1: TNACSINGNAPAEIDLRQMRTVTPIRMQGGCGSCWAFSGVAATESAYLAYRNQSLDLAEQELVDCASQHGCHGDTIPRGIEYIQHNGVVQESYYRYVAREQSCRRPNAQRFGISNYCQIYPPNVNKIREALAQTHSAIAVIIGIKDLDAFRHYDGRTIIQRDNGYQPNYHAVNIVGYSNAQGVDYWIVRNSWDTNWGDNGYGYFAANIDLMMIEEYPYVVIL
B2: Derp2: major house dust mite allergen, group 2, Dermatophagoides pteronyssinus; control (protein, UniProt P49278 18-146, looked up)
Mite group 2 allergen Der p 2: DQVDVKDCANHEIKKVLVPGCHGSEPCIIHRGKPFQLEAVFEANQNTKTAKIEIKASIDGLEVDVPGIDPNACHYMKCPLVKGQQYDIKYTWNVPKIAPKSENVVVTVKVMGDDGVLACAIATHAKIRD
B3: A001: house dust mite protein; SEQ ID NO: 13 (Der f), 14 (Der p); recombinant test protein (protein)
chain: KKSPDCDIERPIRECLKDGLLRYSSGQKINQFPDTIQDLNRACEELKKSETCARTFIDTCTESSYEKRSLDSLLDGIQRVMKRLCRSQTKKEKLLENVGCANSVVQDTKQCLKNYRMLVFAANKLDNKNKIMRILCCKSRKVAPCIGEAMKAKGTAVCSAKNIDYFKDVHQNIKQEMTAVVCSDFERDQCENVDVPNISESEYKDQNIFNPLRDLYKKVILG
B4: Derf1: major house dust mite allergen, group 1, Dermatophagoides farinae; control (protein, UniProt P16311 99-321, looked up)
Peptidase 1: TSACRINSVNVPSELDLRSLRTVTPIRMQGGCGSCWAFSGVAATESAYLAYRNTSLDLSEQELVDCASQHGCHGDTIPRGIEYIQQNGVVEERSYPYVAREQRCRRPNSQHYGISNYCQIYPPDVKQIREALTQTHTAIAVIIGIKDLRAFQHYDGRTIIQHDNGYQPNYHAVNIVGYGSTQGDDYWIVRNSWDTTWGDSGYGYFQAGNNLMMIEQYPYVVIM
B5: Derf2: major house dust mite allergen, group 2, Dermatophagoides farinae; control (protein, UniProt Q00855 18-146, looked up)
Mite group 2 allergen Der f 2: DQVDVKDCANNEIKKVMVDGCHGSDPCIIHRGKPFTLEALFDANQNTKTAKIEIKASLDGLEIDVPGIDTNACHFMKCPLVKGQQYDIKYTWNVPKIAPKSENVVVTVKLIGDNGVLACAIATHGKIRD

System: T cell lines obtained from HDM allergic individuals and non-allergics
Test: In vitro T cell proliferation test in T cell lines (Example 3)
Format: cell-based, human
Details: T cell lines from HDM allergic individuals (n=30); 0.5 or 2 ug/ml; 72 h
How it was run: (§1)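 Freshly isolated PBMC (5×10^6/ml) from mite-allergic patients or non-allergics cultured 5 days with test protein up to 10 ug/ml; IFN-gamma, IL-9, IL-10, IL-17, IL-31 in supernatants by multiplex immunoassay. T cell lines, raised 3 weeks on HDM extract, tested at 0.5 or 2 ug/ml protein in 72 h proliferation assay.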

Molecule | % responders of in-vitro T cell proliferation test, Allergic
B1 | 73%
B2 | 57%
B3 | 17%
B4 | 70%
B5 | 67%

Same assay, conditions: T cell lines from non-allergics (n=8); 0.5 or 2 ug/ml; 72 h

Molecule | % responders of in-vitro T cell proliferation test, Non-allergics
B1 | 13%
B2 | 0%
B3 | 0%
B4 | 0%
B5 | 14%

System: PBMC cells obtained from mite allergic patients and non-allergics
Test: Ex vivo stimulation of PBMC: cytokine production (IFN-gamma, IL-9, IL-10, IL-17, IL-31)
Format: cell-based, human
Details: HDM allergic individuals; IL-5
How it was run: as §1

Molecule | % HDM allergic individuals with cytokine production in ex-vivo T cell assay IL-5
B1 | 50%
B2 | 56%
B3 | 6%
B4 | 75%
B5 | 63%

Same assay, conditions: HDM allergic individuals; IL-9

Molecule | % HDM allergic individuals with cytokine production in ex-vivo T cell assay IL-9
B1 | 6%
B2 | 31%
B3 | 0%
B4 | 19%
B5 | 50%

Same assay, conditions: HDM allergic individuals; IL-10

Molecule | % HDM allergic individuals with cytokine production in ex-vivo T cell assay IL-10
B1 | 50%
B2 | 56%
B3 | 75%
B4 | 50%
B5 | 81%

Same assay, conditions: HDM allergic individuals; IL-13

Molecule | % HDM allergic individuals with cytokine production in ex-vivo T cell assay IL-13
B1 | 50%
B2 | 50%
B3 | 6%
B4 | 56%
B5 | 69%

Same assay, conditions: HDM allergic individuals; IL-17

Molecule | % HDM allergic individuals with cytokine production in ex-vivo T cell assay IL-17
B1 | 6%
B2 | 0%
B3 | 25%
B4 | 6%
B5 | 13%

Same assay, conditions: HDM allergic individuals; IL-31

Molecule | % HDM allergic individuals with cytokine production in ex-vivo T cell assay IL-31
B1 | 0%
B2 | 6%
B3 | 0%
B4 | 0%
B5 | 6%

Same assay, conditions: HDM allergic individuals; INF-g

Molecule | % HDM allergic individuals with cytokine production in ex-vivo T cell assay INF-g
B1 | 0%
B2 | 0%
B3 | 6%
B4 | 0%
B5 | 6%

Same assay, conditions: non-allergic individuals; IL-5

Molecule | % non-allergic individuals with cytokine production in ex-vivo T cell assay IL-5
B1 | 0%
B2 | 0%
B3 | 0%
B4 | 0%
B5 | 0%

Same assay, conditions: non-allergic individuals; IL-9

Molecule | % non-allergic individuals with cytokine production in ex-vivo T cell assay IL-9
B1 | 0%
B2 | 0%
B3 | 0%
B4 | 0%
B5 | 0%

Same assay, conditions: non-allergic individuals; IL-10

Molecule | % non-allergic individuals with cytokine production in ex-vivo T cell assay IL-10
B1 | 17%
B2 | 17%
B3 | 100%
B4 | 33%
B5 | 33%

Same assay, conditions: non-allergic individuals; IL-13

Molecule | % non-allergic individuals with cytokine production in ex-vivo T cell assay IL-13
B1 | 0%
B2 | 0%
B3 | 0%
B4 | 0%
B5 | 0%

Same assay, conditions: non-allergic individuals; IL-17

Molecule | % non-allergic individuals with cytokine production in ex-vivo T cell assay IL-17
B1 | 17%
B2 | 0%
B3 | 50%
B4 | 17%
B5 | 67%

Same assay, conditions: non-allergic individuals; IL-31

Molecule | % non-allergic individuals with cytokine production in ex-vivo T cell assay IL-31
B1 | 0%
B2 | 0%
B3 | 0%
B4 | 0%
B5 | 0%

Same assay, conditions: non-allergic individuals; INF-g

Molecule | % non-allergic individuals with cytokine production in ex-vivo T cell assay INF-g
B1 | 0%
B2 | 0%
B3 | 0%
B4 | 0%
B5 | 17%

System: basophils in whole blood from HDM allergic donors
Test: Basophil Activation Test (BAT)
Format: cell-based, human
Details: 1 ng/ml; blood from HDM allergic individuals (n=14)
How it was run: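 Whole blood from HDM-allergic donors (n=14) was stimulated for 1 h with test proteins across a concentration range, e.g. 1, 10, 100 or 1000 ng/ml. Basophil surface activation markers were measured by flow cytometry, with Der p 1 and Der p 2 tested at the same concentrations as controls.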

Molecule | # of individuals of 14 with positive BAT test
B1 | 7
B2 | 13
B3 | 0
B4 | 10
B5 | 13

Same assay, conditions: 10 ng/ml; blood from HDM allergic individuals (n=14)

Molecule | # of individuals of 14 with positive BAT test
B1 | 10
B2 | 13
B3 | 0
B4 | 10
B5 | 13

Same assay, conditions: 100 ng/ml; blood from HDM allergic individuals (n=14)

Molecule | # of individuals of 14 with positive BAT test
B1 | 10
B2 | 13
B3 | 1
B4 | 10
B5 | 13

Same assay, conditions: 1000 ng/ml; blood from HDM allergic individuals (n=14)

Molecule | # of individuals of 14 with positive BAT test
B1 | 10
B2 | 13
B3 | 2
B4 | 10
B5 | 13
